The subject of data set [1] is RdhK Hybrid A (Desulfitobacterium hafniense DCB-2 (chimera)). Nature of the data set: EMSA. Conditions: 200 uM Cl-OHPA; EMSA: 100 ng DNA, 2 uM protein, 200 uM effector, 15 uL; buffer 100 mM Tris-HCl pH 8.5, 40% glycerol, 10 mM MgCl2, 500 mM NaCl, 5 mM EDTA, 10 mM DTT ….
The test system of data set [2] is RdhK Hybrid B (Desulfitobacterium hafniense DCB-2 (chimera)). The experiment in a line: EMSA. Conditions: 200 uM Cl-OHPA; EMSA: 100 ng DNA, 2 uM protein, 200 uM effector, 15 uL; buffer 100 mM Tris-HCl pH 8.5, 40% glycerol, 10 mM MgCl2, 500 mM NaCl, 5 mM EDTA, 10 mM DTT ….

In data set [1], “GAATTCTCAGGCGATGTAACCGCTTTCAAAGTTAATACACATTAATACTCTTAACAATGTGATAGCTATGATTGCACCG (double strand) [mgl-DB7]” displayed a binding signal of 90 % DNA bound. For the sequence “GAATTCTCAGGCGATGTAACCGCTTTCAAATTTAGTATACGCTAAATATCTTAACAATGTGATAGCTATGATTGCACCG (double strand) [mgl-DB8]”, the binding signal in data set [1] and in data set [2] was 100 % DNA bound in each case.
